Source: patent US20250320281A1

Tests used:
[1] = biological target: HIV-1 MGRM-C-028 Env (HIV-1); experiment: cell-based or functional assay
HIV-1 APV17 Env (HIV-1) = experiment: cell-based or functional assay
[2] = biological target: HIV-1 MGRM-C-027 Env (HIV-1); experiment: cell-based or functional assay
[3] = biological target: aMLV envelope protein on pseudovirus (negative control virus) (aMLV); experiment: cell-based or functional assay
[4] = biological target: Endo H treated JR-FL gp120 (HIV-1); experiment: ELISA, antigen-coated wells
[5] = biological target: HIV-1 92RW020 envelope glycoprotein (Env) on pseudovirus (HIV-1 isolate 92RW020 (clade A)); experiment: cell-based or functional assay
[6] = biological target: HIV-1 Env of pseudovirus MGRM-AG-003 (subtype AG) (HIV-1); experiment: cell-based or functional assay
[7] = biological target: HIV-1 Env of pseudovirus MGRM-AG-008 (subtype AG) (HIV-1); experiment: cell-based or functional assay
[8] = biological target: HIV-1 Env of pseudovirus MGRM-AE-007 (subtype AE) (HIV-1); experiment: cell-based or functional assay
[9] = biological target: HIV-1 Env of isolate MGRM-Chronic-B-001 (HIV-1); experiment: cell-based or functional assay
[10] = biological target: HIV-1 Env of pseudovirus MGRM-A-004 (subtype A) (HIV-1); experiment: cell-based or functional assay
[11] = biological target: HIV-1 Env of isolate MGRM-F1-008 (clade F), on pseudovirus (HIV-1); experiment: cell-based or functional assay
[12] = biological target: HIV-1 Env of pseudovirus MGRM-A-008 (subtype A) (HIV-1); experiment: cell-based or functional assay
[13] = biological target: HIV-1 Env of pseudovirus 93UG077 (subtype A) (HIV-1); experiment: cell-based or functional assay
[14] = biological target: HIV-1 Env of isolate ZM214 (clade C pseudovirus) (HIV-1); experiment: cell-based or functional assay
[15] = biological target: HIV-1 93UG077 Env (pseudovirus) (HIV-1 isolate 93UG077 (clade A)); experiment: cell-based or functional assay

Chain of 1443_C16 (PG16) (TCN-116) (antibody) (VH): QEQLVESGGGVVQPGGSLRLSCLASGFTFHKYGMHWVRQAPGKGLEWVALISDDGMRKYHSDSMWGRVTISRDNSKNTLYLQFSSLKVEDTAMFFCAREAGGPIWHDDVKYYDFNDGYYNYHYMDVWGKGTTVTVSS
Chain of 1443_C16 (PG16) (TCN-116) (antibody) (VL): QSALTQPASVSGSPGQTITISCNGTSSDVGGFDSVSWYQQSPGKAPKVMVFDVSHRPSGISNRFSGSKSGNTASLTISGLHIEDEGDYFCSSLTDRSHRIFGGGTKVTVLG

Substance: 4877_D15 (PGT-122) (antibody)
- Neutralization by PGT-122, IC50 [1]: 2.06 µg/mL
- Neutralization by PGT-122, IC80 [1]: > 10 µg/mL
- Neutralization by PGT-122, IC90 [1]: > 10 µg/mL
- Neutralization by PGT-122, IC95 [1]: > 10 µg/mL
- Neutralization by PGT-122, IC50 (HIV-1 APV17 Env (HIV-1)): 0.522 µg/mL
- Neutralization by PGT-122, IC80 (HIV-1 APV17 Env (HIV-1)): 1.76 µg/mL
- Neutralization by PGT-122, IC90 (HIV-1 APV17 Env (HIV-1)): 3.58 µg/mL
- Neutralization by PGT-122, IC95 (HIV-1 APV17 Env (HIV-1)): 6.92 µg/mL
- Neutralization by PGT-122, IC50 [2]: 0.0388 µg/mL
- Neutralization by PGT-122, IC80 [2]: 0.499 µg/mL
- Neutralization by PGT-122, IC90 [2]: > 10 µg/mL
- Neutralization by PGT-122, IC95 [2]: > 10 µg/mL

Substance: 4858_P08 (PGT-123) (antibody)
- neutralization IC50 [3]: > 10 µg/mL
- neutralization IC80 [3]: > 10 µg/mL
- neutralization IC90 [3]: > 10 µg/mL
- neutralization IC95 [3]: > 10 µg/mL

Substance: 4838_L06 (PGT-121) (antibody)
- EC50 [4]: > 10 µg/mL

Substance: 1496_C09 (PG9) (TCN-109) (antibody)
- neutralization IC50 [5]: 0.161 µg/mL
- neutralization IC80 [5]: 1.04 µg/mL
- neutralization IC90 [5]: 3.4 µg/mL

Substance: VRC01 (antibody)
- IC50, pseudovirus neutralization [6]: 0.043 µg/mL
- IC50, pseudovirus neutralization [7]: 0.124 µg/mL
- IC50, pseudovirus neutralization [8]: 0.835 µg/mL

Substance: PGV04 (antibody)
- IC50 (µg/mL), pseudovirus neutralization [9]: 0.048 µg/mL
- IC50, pseudovirus neutralization [10]: 0.175 µg/mL
- IC50 (µg/mL), pseudovirus neutralization [11]: 1.03 µg/mL
- IC50, pseudovirus neutralization [12]: 0.555 µg/mL
- IC50, pseudovirus neutralization [13]: 0.083 µg/mL

Substance: 1443_C16 (PG16) (TCN-116) (antibody)
- IC50 (neutralization, TZM-bl pseudovirus assay) [14]: > 25 µg/mL

Substance: 5123_A06 (PGT-125) (antibody)
- Neutralization by PGT-125, IC50 [15]: 0.0262 µg/mL
- Neutralization by PGT-125, IC80 [15]: 0.0926 µg/mL
- Neutralization by PGT-125, IC90 [15]: 0.206 µg/mL
- Neutralization by PGT-125, IC95 [15]: 0.487 µg/mL
